Measured values taken from the supplement of paper PMC11316812.
± gives the standard deviation of the averaged measurements.

Experiments:
hTERT-HMEC = experiment: percentage of EdU-negative (G0-arrested) nuclei per well, 72 h; higher = more G0 arrest; conditions: reference: sequence is the full UniProt precursor, the tested protein was the secreted form or ectodomain
MCF7 = experiment: as above; conditions: reference: sequence is the full UniProt precursor, the tested protein was the secreted form or ectodomain
[1] = protein concentration 0.0225 µM
[2] = protein concentration 0.01625 µM
[3] = protein concentration 0.1625 µM
[4] = protein concentration 0.03125 µM
[5] = protein concentration 0.3125 µM
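Further: secreted proteins added to cultured cells, EdU pulse at the end, nuclei found by Hoechst imaging, EdU status from nuclear versus surrounding ring intensity ratio, PBS as neutral control.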

MIRAAPPPLFLLLLLLLLLVSWASRGEAAPDQDEIQRLPGLAKQPSFRQYSGYLKGSGSKHLHYWFVESQKDPENSPVVLWLNGGPGCSSLDGLLTEHGPFLVQPDGVTLEYNPYSWNLIANVLYLESPAGVGFSYSDDKFYATNDTEVAQSNFEALQDFFRLFPEYKNNKLFLTGESYAGIYIPTLAVLVMQDPSMNLQGLAVGNGLSSYEQNDNSLVYFAYYHGLLGNRLWSSLQTHCCSQNKCNFYDNKDLECVTNLQEVARIVGNSGLNIYNLYAPCAGGVPSHFRYEKDTVVVQDLGNIFTRLPLKRMWHQALLRSGDKVRMDPPCTNTTAASTYLNNPYVRKALNIPEQLPQWDMCNFLVNLQYRRLYRSMNSQYLKLLSSQKYQILLYNGDVDMACNFMGDEWFVDSLNQKMEVQRRPWLVKYGDSGEQIAGFVKEFSHIAFLTIKGAGHMVPTDKPLAAFTMFSRFLNKQPY
percentage of EdU-negative (hTERT-HMEC; [1]): 5.3 ± 0.043%
percentage of EdU-negative (hTERT-HMEC; protein concentration 0.225 µM): 5.82 ± 0.15%
percentage of EdU-negative (MCF7; [1]): 25.2 ± 3.7%
percentage of EdU-negative (MCF7; protein concentration 0.225 µM): 25.1 ± 0.47%

MKPNIIFVLSLLLILEKQAAVMGQKGGSKGRLPSEFSQFPHGQKGQHYSGQKGKQQTESKGSFSIQYTYHVDANDHDQSRKSQQYDLNALHKTTKSQRHLGGSQQLLHNKQEGRDHDKSKGHFHRVVIHHKGGKAHRGTQNPSQDQGNSPSGKGISSQYSNTEERLWVHGLSKEQTSVSGAQKGRKQGGSQSSYVLQTEELVANKQQRETKNSHQNKGHYQNVVEVREEHSSKVQTSLCPAHQDKLQHGSKDIFSTQDELLVYNKNQHQTKNLNQDQQHGRKANKISYQSSSTEERRLHYGENGVQKDVSQSSIYSQTEEKAQGKSQKQITIPSQEQEHSQKANKISYQSSSTEERRLHYGENGVQKDVSQRSIYSQTEKLVAGKSQIQAPNPKQEPWHGENAKGESGQSTNREQDLLSHEQKGRHQHGSHGGLDIVIIEQEDDSDRHLAQHLNNDRNPLFT
percentage of EdU-negative (hTERT-HMEC; protein concentration 0.005 µM): 6.42 ± 0.18%
percentage of EdU-negative (hTERT-HMEC; protein concentration 0.05 µM): 6.06 ± 1.2%
percentage of EdU-negative (MCF7; protein concentration 0.005 µM): 28.4 ± 1.1%
percentage of EdU-negative (MCF7; protein concentration 0.05 µM): 25.85 ± 0.061%

MQVSTAALAVLLCTMALCNQFSASLAADTPTACCFSYTSRQIPQNFIADYFETSSQCSKPGVIFLTKRSRQVCADPSEEWVQKYVSDLELSA
percentage of EdU-negative (hTERT-HMEC; [2]): 4.43 ± 0.47%
percentage of EdU-negative (hTERT-HMEC; [3]): 5.62 ± 0.9%
percentage of EdU-negative (MCF7; [2]): 25.6 ± 0.31%
percentage of EdU-negative (MCF7; [3]): 25.3 ± 0.67%

MAAHLLPICALFLTLLDMAQGFRGPLLPNRPFTTVWNANTQWCLERHGVDVDVSVFDVVANPGQTFRGPDMTIFYSSQLGTYPYYTPTGEPVFGGLPQNASLIAHLARTFQDILAAIPAPDFSGLAVIDWEAWRPRWAFNWDTKDIYRQRSRALVQAQHPDWPAPQVEAVAQDQFQGAARAWMAGTLQLGRALRPRGLWGFYGFPDCYNYDFLSPNYTGQCPSGIRAQNDQLGWLWGQSRALYPSIYMPAVLEGTGKSQMYVQHRVAEAFRVAVAAGDPNLPVLPYVQIFYDTTNHFLPLDELEHSLGESAAQGAAGVVLWVSWENTRTKESCQAIKEYMDTTLGPFILNVTSGALLCSQALCSGHGRCVRRTSHPKALLLLNPASFSIQLTPGGGPLSLRGALSLEDQAQMAVEFKCRCYPGWQAPWCERKSMW
percentage of EdU-negative (hTERT-HMEC; [1]): 5.35 ± 0.22%
percentage of EdU-negative (hTERT-HMEC; protein concentration 0.225 µM): 5.55 ± 0.18%
percentage of EdU-negative (MCF7; [1]): 26.3 ± 0.86%
percentage of EdU-negative (MCF7; protein concentration 0.225 µM): 26 ± 1.1%

MIPAKDMAKVMIVMLAICFLTKSDGKSVKKRSVSEIQLMHNLGKHLNSMERVEWLRKKLQDVHNFVALGAPLAPRDAGSQRPRKKEDNVLVESHEKSLGEADKADVNVLTKAKSQ
percentage of EdU-negative (hTERT-HMEC; [4]): 4.88 ± 0.23%
percentage of EdU-negative (hTERT-HMEC; [5]): 6.37 ± 2%
percentage of EdU-negative (MCF7; [4]): 25.8 ± 0.95%
percentage of EdU-negative (MCF7; [5]): 25 ± 0.47%

MRAAGTLLAFCCLVLSTTGGPSPDTCSQDLNSRVKPGFPKTIKTNDPGVLQAARYSVEKFNNCTNDMFLFKESRITRALVQIVKGLKYMLEVEIGRTTCKKNQHLRLDDCDFQTNHTLKQTLSCYSEVWVVPWLQHFEVPVLRCH
percentage of EdU-negative (hTERT-HMEC; [1]): 4.61 ± 0.72%
percentage of EdU-negative (hTERT-HMEC; protein concentration 0.225 µM): 4.863 ± 0.024%
percentage of EdU-negative (MCF7; [1]): 27.2 ± 0.74%
percentage of EdU-negative (MCF7; protein concentration 0.225 µM): 27.2 ± 1.1%
